Test results as given in patent publication US20230265151A1, “GIP/GLP1 CO-AGONIST COMPOUNDS” (priority 2020, published 2023).
Positions count from the first letter of the chain named. *1 amine or outer side, *2 acyl side, *3 side chain or, on linkers, in order; H or OH if unused. Where no end group is shown, it is not given here. Side-chain parts run from the residue outwards. [ ]: non-standard residue; d: D form. The star is where a group is joined. αMePhe(2-F) = C[C@](N)(Cc1ccccc1F)C(=O)O; γGlu = O=C(O)[C@H](CCC(=O)[*:2])N[*:1]; C14 diacid = O=C(O)CCCCCCCCCCCCC(=O)*; εLys = N[C@@H](CCCCN[*:1])C(=O)[*:2]; αMeY = C[C@](N)(Cc1ccc(O)cc1)C(=O)O; αMeF = C[C@](N)(Cc1ccccc1)C(=O)O; αMeL = CC(C)C[C@](C)(N)C(=O)O; Orn = NCCC[C@H](N)C(=O)O; Dap = NC[C@H](N)C(=O)O; AEEA = NCCOCCOCC(=O)O; Aib = CC(C)(N)C(=O)O

B1: Y-Aib-EGT-αMeF(2F)-TSD-4Pal-SI-αMeL-LD-Orn-K((2-[2-(2-Amino-ethoxy)-ethoxy]-acetyl)2-(γ-Glu)-CO-(CH2)12-CO2H)AQ-Aib-EFI-(D-Glu)-αMeY-LIEGK((2-[2-(2-Amino-ethoxy … (peptide)
peptide: YXEGTXTSDXSIXLDXKAQXEFIXXLIEGKPSSGAPPPS
modifications: Aib2, αMeF(2F)6, 4Pal10, αMeL13, Orn16, Aib20, D-Glu24, αMeY25; acylated K17, K30 (groups as in name); C-terminal amide
B2: Y-Aib-EGT-αMeF(2F)-TSD-4Pal-SK((2-[2-(2-Amino-ethoxy)-ethoxy]-acetyl)2-(γ-Glu)-CO-(CH2)12-CO2H)-αMeL-LD-Orn-K((2-[2-(2-Amino-ethoxy)-ethoxy]-acetyl)2-(γ-Glu)-CO … (peptide)
peptide: B1 peptide with I12K, K30G
modifications: Aib2, αMeF(2F)6, 4Pal10, αMeL13, Orn16, Aib20, D-Glu24, αMeY25; acylated K12, K17 (groups as in name); C-terminal amide
B3: Y-Aib-EGT-αMeF(2F)-TSDV-αMeS-I-αMeL-LD-Orn-K((2-[2-(2-Amino-ethoxy)-ethoxy]-acetyl)2-(γ-Glu)-CO-(CH2)12-CO2H)AQ-Aib-EFI-(D-Glu)-αMeY-LIEGGK((2-[2-(2-Amino-ethox … (peptide)
peptide: B1 peptide with X10V, S11X, K30G, P31K
modifications: Aib2, αMeF(2F)6, αMeS11, αMeL13, Orn16, Aib20, D-Glu24, αMeY25; acylated K17, K31 (groups as in name); C-terminal amide
B4: Y-Aib-EGT-αMeF(2F)-TSD-4Pal-SI-αMeL-LD-Orn-K((2-[2-(2-Amino-ethoxy)-ethoxy]-acetyl)2-(γ-Glu)-CO-(CH2)14-CH3)AQ-Aib-EFI-(D-Glu)-αMeY-LIEGK((2-[2-(2-Amino-ethoxy) … (peptide)
peptide: B1 peptide
modifications: Aib2, αMeF(2F)6, 4Pal10, αMeL13, Orn16, Aib20, D-Glu24, αMeY25; acylated K17, K30 (groups as in name); C-terminal amide
B5: Y-Aib-EGT-αMeF(2F)-TSDV-Dap-I-αMeL-LD-Orn-K((2-[2-(2-Amino-ethoxy)-ethoxy]-acetyl)2-(γ-Glu)-CO-(CH2)12-CO2H)AQ-Aib-EFIe-αMeY-LIEGGK((2-[2-(2-Amino-ethoxy)-ethox … (peptide)
peptide: Y[Aib]EGT[αMePhe(2-F)]TSDV[Dap]I[αMeL]LD[Orn]K([AEEA-AEEA-γGlu-C14 diacid])AQ[Aib]EFI[dE][αMeY]LIEGGK([AEEA-AEEA-γGlu-C14 diacid])SSGAPPPS-NH2
modifications: N-terminus assumed
SMILES: CC[C@H](C)[C@H](NC(=O)[C@H](CC(C)C)NC(=O)[C@](C)(Cc1ccc(O)cc1)NC(=O)[C@@H](CCC(=O)O)NC(=O)[C@@H](NC(=O)[C@H](Cc1ccccc1)NC(=O)[C@H](CCC(=O)O)NC(=O)C(C)(C)NC(=O)[C@H](CCC(N)=O)NC(=O)[C@H](C)NC(=O)[C@H](CCCCNC(=O)COCCOCCNC(=O)COCCOCCNC(=O)CC[C@H](NC(=O)CCCCCCCCCCCCC(=O)O)C(=O)O)NC(=O)[C@H](CCCN)NC(=O)[C@H](CC(=O)O)NC(=O)[C@H](CC(C)C)NC(=O)[C@](C)(CC(C)C)NC(=O)[C@@H](NC(=O)[C@H](CN)NC(=O)[C@@H](NC(=O)[C@H](CC(=O)O)NC(=O)[C@H](CO)NC(=O)[C@@H](NC(=O)[C@](C)(Cc1ccccc1F)NC(=O)[C@@H](NC(=O)CNC(=O)[C@H](CCC(=O)O)NC(=O)C(C)(C)NC(=O)[C@@H](N)Cc1ccc(O)cc1)[C@@H](C)O)[C@@H](C)O)C(C)C)[C@@H](C)CC)[C@@H](C)CC)C(=O)N[C@@H](CCC(=O)O)C(=O)NCC(=O)NCC(=O)N[C@@H](CCCCNC(=O)COCCOCCNC(=O)COCCOCCNC(=O)CC[C@H](NC(=O)CCCCCCCCCCCCC(=O)O)C(=O)O)C(=O)N[C@@H](CO)C(=O)N[C@@H](CO)C(=O)NCC(=O)N[C@@H](C)C(=O)N1CCC[C@H]1C(=O)N1CCC[C@H]1C(=O)N1CCC[C@H]1C(=O)N[C@@H](CO)C(N)=O
B6: Y-Aib-EGT-αMeF(2F)-TSDV-Aib-I-αMeL-LD-Orn-K((εK)-(γ-Glu)-CO-(CH2)12-CO2H)AQ-Aib-EFI-(D-Glu)-αMeY-LIEGGK((εK)-(γ-Glu)-CO-(CH2)12-CO2H)SSGAPPPS-NH2 (peptide)
peptide: Y[Aib]EGT[αMePhe(2-F)]TSDV[Aib]I[αMeL]LD[Orn]K([εLys-γGlu-C14 diacid])AQ[Aib]EFI[dE][αMeY]LIEGGK([εLys-γGlu-C14 diacid])SSGAPPPS-NH2
modifications: N-terminus assumed
SMILES: CC[C@H](C)[C@H](NC(=O)[C@H](CC(C)C)NC(=O)[C@](C)(Cc1ccc(O)cc1)NC(=O)[C@@H](CCC(=O)O)NC(=O)[C@@H](NC(=O)[C@H](Cc1ccccc1)NC(=O)[C@H](CCC(=O)O)NC(=O)C(C)(C)NC(=O)[C@H](CCC(N)=O)NC(=O)[C@H](C)NC(=O)[C@H](CCCCNC(=O)[C@@H](N)CCCCNC(=O)CC[C@H](NC(=O)CCCCCCCCCCCCC(=O)O)C(=O)O)NC(=O)[C@H](CCCN)NC(=O)[C@H](CC(=O)O)NC(=O)[C@H](CC(C)C)NC(=O)[C@](C)(CC(C)C)NC(=O)[C@@H](NC(=O)C(C)(C)NC(=O)[C@@H](NC(=O)[C@H](CC(=O)O)NC(=O)[C@H](CO)NC(=O)[C@@H](NC(=O)[C@](C)(Cc1ccccc1F)NC(=O)[C@@H](NC(=O)CNC(=O)[C@H](CCC(=O)O)NC(=O)C(C)(C)NC(=O)[C@@H](N)Cc1ccc(O)cc1)[C@@H](C)O)[C@@H](C)O)C(C)C)[C@@H](C)CC)[C@@H](C)CC)C(=O)N[C@@H](CCC(=O)O)C(=O)NCC(=O)NCC(=O)N[C@@H](CCCCNC(=O)[C@@H](N)CCCCNC(=O)CC[C@H](NC(=O)CCCCCCCCCCCCC(=O)O)C(=O)O)C(=O)N[C@@H](CO)C(=O)N[C@@H](CO)C(=O)NCC(=O)N[C@@H](C)C(=O)N1CCC[C@H]1C(=O)N1CCC[C@H]1C(=O)N1CCC[C@H]1C(=O)N[C@@H](CO)C(N)=O
B7: Y-Aib-EGT-αMeF(2F)-TSDV-Aib-I-αMeL-LD-Orn-K((2-[2-(2-Amino-ethoxy)-ethoxy]-acetyl)2-(γ-Glu)-CO-(CH2)12-CO2H)AQ-Aib-EFI-(D-Glu)-αMeY-LIEGGK((2-[2-(2-Amino-ethoxy … (peptide)
peptide: Y[Aib]EGT[αMePhe(2-F)]TSDV[Aib]I[αMeL]LD[Orn]K([AEEA-AEEA-γGlu-C14 diacid])AQ[Aib]EFI[dE][αMeY]LIEGGK([AEEA-AEEA-γGlu-C14 diacid])SSGAPPPS-NH2
modifications: N-terminus assumed
SMILES: CC[C@H](C)[C@H](NC(=O)[C@H](CC(C)C)NC(=O)[C@](C)(Cc1ccc(O)cc1)NC(=O)[C@@H](CCC(=O)O)NC(=O)[C@@H](NC(=O)[C@H](Cc1ccccc1)NC(=O)[C@H](CCC(=O)O)NC(=O)C(C)(C)NC(=O)[C@H](CCC(N)=O)NC(=O)[C@H](C)NC(=O)[C@H](CCCCNC(=O)COCCOCCNC(=O)COCCOCCNC(=O)CC[C@H](NC(=O)CCCCCCCCCCCCC(=O)O)C(=O)O)NC(=O)[C@H](CCCN)NC(=O)[C@H](CC(=O)O)NC(=O)[C@H](CC(C)C)NC(=O)[C@](C)(CC(C)C)NC(=O)[C@@H](NC(=O)C(C)(C)NC(=O)[C@@H](NC(=O)[C@H](CC(=O)O)NC(=O)[C@H](CO)NC(=O)[C@@H](NC(=O)[C@](C)(Cc1ccccc1F)NC(=O)[C@@H](NC(=O)CNC(=O)[C@H](CCC(=O)O)NC(=O)C(C)(C)NC(=O)[C@@H](N)Cc1ccc(O)cc1)[C@@H](C)O)[C@@H](C)O)C(C)C)[C@@H](C)CC)[C@@H](C)CC)C(=O)N[C@@H](CCC(=O)O)C(=O)NCC(=O)NCC(=O)N[C@@H](CCCCNC(=O)COCCOCCNC(=O)COCCOCCNC(=O)CC[C@H](NC(=O)CCCCCCCCCCCCC(=O)O)C(=O)O)C(=O)N[C@@H](CO)C(=O)N[C@@H](CO)C(=O)NCC(=O)N[C@@H](C)C(=O)N1CCC[C@H]1C(=O)N1CCC[C@H]1C(=O)N1CCC[C@H]1C(=O)N[C@@H](CO)C(N)=O
B8: Example 198 (peptide)
peptide: B1 peptide with K17I, X24K, K30G, P31K
modifications: Aib2, αMeF(2F)6, 4Pal10, αMeL13, Orn16, Aib20, K24(Z), αMeY25, K31(Z), C-terminal NH2; Z = (εK)-(εK)-(γ-Glu)-CO-(CH2)12-CO2H

target: T1, human GIP receptor (human, UniProt P48546 22-466); experiment: cell-based or functional assay
T1 sequence (looked up): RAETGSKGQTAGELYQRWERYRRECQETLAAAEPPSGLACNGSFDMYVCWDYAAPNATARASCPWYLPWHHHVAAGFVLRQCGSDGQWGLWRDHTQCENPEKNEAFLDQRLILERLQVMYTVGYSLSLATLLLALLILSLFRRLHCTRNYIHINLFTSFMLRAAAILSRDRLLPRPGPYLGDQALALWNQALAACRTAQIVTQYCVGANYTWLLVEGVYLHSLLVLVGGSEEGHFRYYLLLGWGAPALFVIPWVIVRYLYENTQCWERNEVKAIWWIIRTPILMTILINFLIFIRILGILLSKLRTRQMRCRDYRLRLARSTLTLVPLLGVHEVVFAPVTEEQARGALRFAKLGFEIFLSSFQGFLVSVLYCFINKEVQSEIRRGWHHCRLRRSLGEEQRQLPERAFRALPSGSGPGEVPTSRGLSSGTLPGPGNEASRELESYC

Row | Binder | cAMP EC50 (1.0% HSA) | cAMP Emax (1.0% HSA)
1 | B1 | 1.12 nM | –
2 | B2 | 2.08 nM | 93%
3 | B3 | 16.6 nM | 81%
4 | B4 | 0.444 nM | –
5 | B5 | 13.2 nM | 80.5%
6 | B6 | 3.62 nM | –
7 | B7 | 7.05 nM | –

target: human glucagon receptor (human, UniProt P47871 26-477); experiment: cell-based or functional assay

Row | Binder | cAMP EC50 (1.0% HSA)
8 | B1 | > 9950 nM
9 | B2 | > 9950 nM
10 | B4 | > 9950 nM

target: human GLP-1 receptor (human, UniProt P43220 24-463); experiment: cell-based or functional assay

Row | Binder | cAMP Emax (1.0% HSA) | cAMP EC50 (1.0% HSA)
11 | B1 | 103% | –
12 | B2 | – | 60.4 nM
13 | B3 | 91% | 33.7 nM
14 | B4 | 103% | –
15 | B5 | – | 25.1 nM
16 | B6 | – | 26.6 nM
17 | B7 | – | 20.4 nM

target: T2, human glucose-dependent insulinotropic polypeptide (GIP) receptor (human, UniProt P48546 22-466); experiment: cell-based or functional assay
T2 sequence (looked up): T1 sequence (looked up)

Row | Binder | cAMP EC50 | cAMP Emax
18 | Y[Aib]EGT[αMeF]TSDV[Aib]I[αMeL]LD[Orn]K([AEEA-AEEA-γGlu-C14 diacid])AQ[Aib]EFIK([AEEA-AEEA-γGlu-C14 diacid])[αMeY]LIEGGKSSGAPPPS-NH2 (not fully specified) [Example 182] | 0.368 nM | 89%
19 | B8 | 0.0269 nM | 94%

target: human glucagon receptor (human, UniProt P47871 26-477); experiment: cell-based or functional assay; remark: another data set of the same source

Row | Binder | cAMP EC50
20 | Y[Aib]EGT[αMeF]TSDV[Aib]I[αMeL]LD[Orn]K([AEEA-AEEA-γGlu-C14 diacid])AQ[Aib]EFIK([AEEA-AEEA-γGlu-C14 diacid])[αMeY]LIEGGKSSGAPPPS-NH2 (not fully specified) [Example 182] | > 9950 nM
21 | B8 | > 9950 nM

target: human glucagon-like peptide-1 (GLP-1) receptor (human, UniProt P43220 24-463); experiment: cell-based or functional assay

Row | Binder | cAMP EC50 | cAMP Emax
22 | Y[Aib]EGT[αMeF]TSDV[Aib]I[αMeL]LD[Orn]K([AEEA-AEEA-γGlu-C14 diacid])AQ[Aib]EFIK([AEEA-AEEA-γGlu-C14 diacid])[αMeY]LIEGGKSSGAPPPS-NH2 (not fully specified) [Example 182] | 0.185 nM | 96.9%
23 | B8 | 0.362 nM | –
